From patent US20260183437A1, “VHH ANTIBODY CONJUGATES WITH HETEROARYL CHELATORS” (ABDERA THERAPEUTICS INC., priority 2022, published 2026)

Columns and labels:
hFcRn = target: T1, hFcRn (Homo sapiens, UniProt P55899); assay: FcRn affinity by biolayer interferometry (Octet RED96e), pH 6.0; conditions: pH 6.0, 2:1 binding model
T1 construct: purchased Sino Biological CT071-H27H-B
Experimental: FcRn affinity of VHH-Fc can generally be used to predict the half-life of antibody serum clearance. (See, e.g., Datta-Mannan A et al. “FcRn affinity-pharmacokinetic relationship of five human IgG4 antibodies engineered for improved in vitro FcRn binding properties in cynomolgus monkeys.” Drug Metab Dispos. 2012 August; 40(8):1545-55). Briefly, 10 nM of biotinylated hFcRn (Sino Biological, Cat #: CT071-H27H-B) was captured with the SA biosensor using Octet RED96e (Fortebio). The hFcRN coated biosensor was dipped into the sample solutions in sodium phosphate buffer (100 mM Na2HPO4, 150 mM NaCl w/ 0.05% Tween-20, pH 6.0) with serial concentrations of tested antibodies and the association measured. The dissociation was measured by dipping the biosensors into sodium phosphate buffer without antibody. The KD values were determined using Octet Data Analysis HT 11.0 software. 2:1 (Heterogeneous Ligand) binding model was used in analysis. […] Changes in FcRn affinity were consistent across targets. Constructs with Fc Effector mutation only have no impact on FcRn affinity.

human insulin = target: T2, human insulin (Homo sapiens, UniProt P01308); assay: Polyreactivity ELISA; type: binding; conditions: 10 μg/mL VHH-Fc; signal normalized to non-coated well
T2 construct: 5 μg/mL of human insulin (SigmaAlrich, Cat #: I9278); purchased SigmaAlrich I9278
T2 sequence (P01308 25-54 limits assumed): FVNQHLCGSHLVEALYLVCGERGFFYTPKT
T2 sequence (P01308 90-110 limits assumed): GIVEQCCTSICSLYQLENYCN
Experimental: Polyreactivity of VHH-Fcs against negatively charged biomolecules was determined by ELISA (As in Avery et al., “Establishing in vitro in vivo correlations to screen monoclonal antibodies for physicochemical properties related to favorable human pharmacokinetics.” MAbs. 2018 February/March; 10(2):244-255). Briefly, ELISA plate was coated with 5 μg/mL of human insulin (SigmaAlrich, Cat #: I9278) and 10 μg/mL of double stranded DNA (SigmaAlrich, Cat #: D1626-250MG) overnight. The plate was blocked with ELISA buffer (PBS, 1 mM EDTA, 0.05% Tween-20, pH 7.4). 10 μg/mL of test VHH-Fcs was loaded onto the plates in quadruplicates and incubated for 2 hours. Goat anti-human Fc(0.01 ug/ml) conjugated with HRP was then added and the plate incubated for 1 hour. The signal was developed with TMB and A450 absorbance was measured with Synergy Neo2 plate reader. The signal was normalized with the signal of non-coated well for each antibody tested.

[1] = Pharmacokinetics of VHH-Fc variants in Tg32 (humanized FcRn) mice; type: in vivo; conditions: IV 3 mg/kg, HER2 VHH-Fc study (Table 6)
Experimental: Twenty eight (28) 8 week old male B6. Cg-Fcgrt^tm1Der Tg(FCGRT)32Dcr/DcrJ (Tg32 hom, JAX stock #014565) mice were distributed into 7 groups with 4 mice per group as outlined in the table. […] (See, e.g., Avery L B et al. “Utility of a human FcRn transgenic mouse model in drug discovery for early assessment and prediction of human pharmacokinetics of monoclonal antibodies.” MAbs. 2016 August-September; 8(6):1064-78). On Day 0, body weights were measured and test articles were IV administered to all mice at 3 mg/kg and 5 mL/kg. 25 μL blood samples were collected from each mouse at time intervals. The blood samples were collected into 1 μL K3EDTA, processed to plasma, diluted 1/10 in 50% glycerol in PBS, transferred into specialized 96 well storage plates, and stored at −20° C. All plasma samples were assessed via a hIgG ELISA chosen for its high sensitivity for all seven test articles.

BT-474 tumor = assay: Biodistribution of ^111In radiolabeled VHH-Fcs, SPECT/CT imaging; type: in vivo, mice; conditions: labeled with ^111In, compared with H101
Experimental: The objective of this study was to observe the biodistribution of ^111In radiolabeled SPECT/CT imaging across select test articles in BT-474 tumor (breast cancer cells) bearing nude mice. The following articles were tested at a CAR of about 4: ^111In-H101-4-1, ^111In-H1014-2, ^111In-H105-4-2, ^111In-H107-4-2, and ^111In-H108-4-2. FIGS. 9A, 9B, and 9C show tissue accumulation over time for ^111In-H101-SL, ^111In-H101-4-2, and ^111In-H108-4-2. […] FIGS. 10A, 10B, and 10C show tumor:tissue ratios. In each case, the tumor:tissue ratios were greater than 5, indicating increased tumor accumulation and better profiles used for determining safety (e.g., as compared lower tumor:tissue ratios). […] In each case, the VHH-Fc variants show advantageous targeting of tumor tissue.

FcγRIIa (R167) = target: T3, FcγRIIa (R167) (Homo sapiens, UniProt P12318, H167R); assay: FcγR affinity by biolayer interferometry (Octet Red96e); type: binding
T3 construct: purchased Acro Biosystems
T3 sequence (P12318 36-218 H167R limits assumed): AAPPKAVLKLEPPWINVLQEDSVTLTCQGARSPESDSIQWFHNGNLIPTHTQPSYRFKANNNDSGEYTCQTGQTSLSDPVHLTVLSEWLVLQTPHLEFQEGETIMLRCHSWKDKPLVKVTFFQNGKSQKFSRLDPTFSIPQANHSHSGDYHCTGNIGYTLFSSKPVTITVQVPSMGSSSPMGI
Experimental: (§1) VHH-Fcs were also tested for affinity to FcγRs by biolayer interferometry using the Octet Red96e platform. Each cycle is performed with orbital shake speed of 1,000 rpm. Streptavidin (SA) biosensors (Sartorius 18-5019) were rehydrated for 10 mins using kinetics buffer (PBS+0.1% BSA+0.02% Tween-20). Biotinylated-FcγRs (Acro Biosystems) were then loaded for 40-100 s onto SA biosensors at concentrations ranging between 1-5 μg/mL diluted in PBS. VHH-Fcs were serially diluted 1:2 in sample buffer (PBS+0.02% Tween-20) with starting concentrations ranging between 5000 nM to 37.5 nM. Loaded biosensors were then associated with VHH-Fcs for 60-120 s. VHH-Fc dissociation was measured for 30-900 s in sample buffer. Bound VHH-Fcs were then removed using 3 cycles of 5 s regeneration buffer (150 mM NaCl, 300 mM Sodium Citrate) and 5 s sample buffer. The data was analyzed either using a globally-fitted 1:1 Langmuir binding model (FcγRI) or steady state analysis (Octet software version HT v11.1).

FcγRIIb/c = target: T4, FcγRIIb/c (Homo sapiens, UniProt P31994); assay: as above; type: binding
T4 construct: purchased Acro Biosystems
T4 sequence (P31994 43-310): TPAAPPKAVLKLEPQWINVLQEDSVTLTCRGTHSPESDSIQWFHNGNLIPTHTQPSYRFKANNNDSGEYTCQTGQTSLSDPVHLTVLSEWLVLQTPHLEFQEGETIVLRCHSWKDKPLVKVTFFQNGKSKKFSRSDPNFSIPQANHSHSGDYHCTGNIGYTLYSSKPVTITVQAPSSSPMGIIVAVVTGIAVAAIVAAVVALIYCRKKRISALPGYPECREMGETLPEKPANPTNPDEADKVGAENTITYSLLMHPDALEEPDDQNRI
Experimental: as §1

FcγRI = target: T5, FcγRI (Homo sapiens, UniProt P12314); assay: as above; type: binding
T5 construct: purchased Acro Biosystems
T5 sequence (P12314 16-374): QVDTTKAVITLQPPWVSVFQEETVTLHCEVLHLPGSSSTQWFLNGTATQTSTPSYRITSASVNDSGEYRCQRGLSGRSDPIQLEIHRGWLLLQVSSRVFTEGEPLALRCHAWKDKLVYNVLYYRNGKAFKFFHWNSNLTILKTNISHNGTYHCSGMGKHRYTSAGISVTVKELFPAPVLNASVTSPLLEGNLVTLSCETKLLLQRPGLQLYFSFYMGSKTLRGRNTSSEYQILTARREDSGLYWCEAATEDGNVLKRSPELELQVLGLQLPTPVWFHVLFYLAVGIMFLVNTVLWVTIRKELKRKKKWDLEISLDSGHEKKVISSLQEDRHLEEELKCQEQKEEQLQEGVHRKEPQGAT
Experimental: as §1

Substance	Kd (hFcRn) [nM]	Polyreactivity Assay Score, Insulin (human insulin)	KD (nM) to FcRn (hFcRn)	Kd (FcγRIIa (R167)) [nM]	FcγRIIb/c nM KD (FcγRIIb/c)	Kd (FcγRI) [nM]	Clearance [1] [mL/day]	Cmax [1] [µg/mL]	Terminal Half-Life [1] [h]	Whole body clearance (BT-474 tumor)
H106: anti-HER2 VHH-Fc, FcRn mutant S254A [Compound H106]	13	1.321					19.8	53.5	170	
H109: anti-HER2 VHH-Fc, FcRn mutant Y463A (as printed) [Compound H109]	13	1.244					18.2	52.2	166	
H107: anti-HER2 VHH-Fc, FcRn mutant H310A [Compound H107]		1.306	No binding				304.4	62.4	9.84	increased clearance
H108: anti-HER2 VHH-Fc, FcRn mutant H435Q [Compound H108]		1.420	Weak				117.5	46.6	37.7	increased clearance
H105: anti-HER2 VHH-Fc, FcRn mutant I253A [Compound H105]		1.207	Weak				152.1	63.9	26.9	increased clearance

Continued, in another order:

Kd (hFcRn) [nM]	Polyreactivity Assay Score, Insulin (human insulin)	KD (nM) to FcRn (hFcRn)	Kd (FcγRIIa (R167)) [nM]	FcγRIIb/c nM KD (FcγRIIb/c)	Kd (FcγRI) [nM]	Substance	Clearance [1] [mL/day]	Cmax [1] [µg/mL]	Terminal Half-Life [1] [h]	Whole body clearance (BT-474 tumor)
		Weak	1200	weak		H137: anti-HER2 VHH-Fc, H435Q, Fc effector mutant AEASS [Compound H137]				
		No binding	1200	weak		H135: anti-HER2 VHH-Fc, H310A, Fc effector mutant AEASS [Compound H135]				
2.1			2300	weak	1	H133: anti-HER2 VHH-Fc, FcRn wt, Fc effector mutant AEASS [Compound H133]				
